Here are results for five compounds from PMC6550519, “Regulatory Mechanism of Nicotine Degradation in Pseudomonas putida” (mBio, 2019).

Usually Kd stands for the concentration at which binding is half-saturated. The low end stands for tighter binding, the high end for weaker binding.

Series [1] relates to NicR2 (Pseudomonas putida S16). Kind of series: ITC. The following applies: EMSA: 10 mM Tris-HCl, 100 mM NaCl, 27 nM DNA, 180 nM NicR2, 30 min room temperature, 9% native PAGE; ITC: PBS, 64 uM NicR2 in cell, 100 uM DNA titrant ….
Series [2] deals with NicR2. Kind of series: ITC, […] HSP titrated into […] purified free NicR2; supported by EMSA. The class given is binding, Pseudomonas putida. (ITC needs no label: the signal is the heat of the interaction.)

For the compound “CACTAATTATACCGTCGTACATATCCTAAA (double strand) [R-m12 30 bp]”, the Kd in series [1] came out at 140 nM.
On the same count and under the same terms, the result for “CACTAATTATACCGTCGTACATCTAATAAA (double strand) [R-m4 30 bp]” reads 570 nM.
Compound `O=C(O)CCC(=O)c1ccc(O)nc1` [HSP, 6-hydroxy-3-succinoyl-pyridine] registered a Kd in series [2] of 4950 ± 480 nM.
Take “CACTAATTATACCGTCGTACATAGAATAAA (double strand) [R-m3 30 bp]”: the Kd in series [1] stood at 1800 nM.
On the same count and under the same terms, the result for “CACTAATTATACCGTCGTACATATAATAAA (double strand) [wild type 30 bp (Pspm inverted repeat)]” reads 180 nM.
